Values of other authors, collected in paper PMC8175380.

Key:
[1] = molecular target: EED (Homo sapiens) (UniProt O75530); experiment: ITC
[2] = molecular target: MDM2 (Homo sapiens) (UniProt Q00987); experiment: SPR
Chain of MDM2 (Homo sapiens) (Q00987 whole entry): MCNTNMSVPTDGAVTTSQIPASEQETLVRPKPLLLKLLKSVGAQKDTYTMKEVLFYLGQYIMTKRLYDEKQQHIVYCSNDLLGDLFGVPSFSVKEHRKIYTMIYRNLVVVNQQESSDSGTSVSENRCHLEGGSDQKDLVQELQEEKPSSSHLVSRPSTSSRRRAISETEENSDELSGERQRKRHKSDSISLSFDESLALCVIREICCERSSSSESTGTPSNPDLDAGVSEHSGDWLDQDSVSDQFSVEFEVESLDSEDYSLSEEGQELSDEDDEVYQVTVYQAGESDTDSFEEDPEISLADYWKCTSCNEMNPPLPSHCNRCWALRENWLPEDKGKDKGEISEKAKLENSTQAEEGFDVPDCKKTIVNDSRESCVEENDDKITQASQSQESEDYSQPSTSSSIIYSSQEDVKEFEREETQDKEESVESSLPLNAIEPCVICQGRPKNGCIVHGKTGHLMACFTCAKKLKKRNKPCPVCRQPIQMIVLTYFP

Chain of EZH2 peptide aptamer (Q15910 whole entry): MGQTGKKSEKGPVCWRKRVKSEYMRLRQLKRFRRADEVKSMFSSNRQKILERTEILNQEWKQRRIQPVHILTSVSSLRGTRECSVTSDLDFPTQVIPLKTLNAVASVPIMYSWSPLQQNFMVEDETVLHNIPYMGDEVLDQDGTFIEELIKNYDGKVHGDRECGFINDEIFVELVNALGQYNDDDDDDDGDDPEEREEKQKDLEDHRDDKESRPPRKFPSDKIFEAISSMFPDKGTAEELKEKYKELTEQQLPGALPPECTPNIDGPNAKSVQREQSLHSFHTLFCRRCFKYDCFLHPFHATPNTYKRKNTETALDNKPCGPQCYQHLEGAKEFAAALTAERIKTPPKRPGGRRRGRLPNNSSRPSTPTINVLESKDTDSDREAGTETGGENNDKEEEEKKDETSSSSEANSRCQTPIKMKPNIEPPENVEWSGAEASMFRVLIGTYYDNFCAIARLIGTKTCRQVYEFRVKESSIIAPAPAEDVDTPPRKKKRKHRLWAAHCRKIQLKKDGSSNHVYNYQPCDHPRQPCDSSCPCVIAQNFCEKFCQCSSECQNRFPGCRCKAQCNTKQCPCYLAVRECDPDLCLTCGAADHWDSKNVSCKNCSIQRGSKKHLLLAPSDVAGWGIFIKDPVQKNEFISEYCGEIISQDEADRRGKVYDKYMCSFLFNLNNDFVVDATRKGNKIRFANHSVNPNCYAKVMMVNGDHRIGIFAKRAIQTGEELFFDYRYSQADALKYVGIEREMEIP
Chain of EED (Homo sapiens) (O75530 2-441): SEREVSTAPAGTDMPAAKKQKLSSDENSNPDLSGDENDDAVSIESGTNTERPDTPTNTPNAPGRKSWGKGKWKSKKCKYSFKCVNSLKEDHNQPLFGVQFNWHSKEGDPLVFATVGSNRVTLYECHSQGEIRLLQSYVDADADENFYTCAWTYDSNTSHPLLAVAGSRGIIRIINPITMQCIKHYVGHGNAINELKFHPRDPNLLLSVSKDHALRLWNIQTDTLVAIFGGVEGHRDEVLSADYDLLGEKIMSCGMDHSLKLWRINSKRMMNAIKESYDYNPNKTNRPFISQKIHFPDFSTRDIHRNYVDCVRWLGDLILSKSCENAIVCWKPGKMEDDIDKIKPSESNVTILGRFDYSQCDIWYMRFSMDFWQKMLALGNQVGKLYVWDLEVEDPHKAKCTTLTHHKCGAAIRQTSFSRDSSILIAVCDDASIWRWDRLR

Kd [1] [nM]	Kd [2] [nM]	Substance
380	–	EZH2 peptide aptamer (from UniProt Q15910)
–	140	p53 peptide aptamer (from UniProt P04637)
